PMC4364296

Target: T1, His-SlmA/SBS (E. coli), P0C093
T1 chain: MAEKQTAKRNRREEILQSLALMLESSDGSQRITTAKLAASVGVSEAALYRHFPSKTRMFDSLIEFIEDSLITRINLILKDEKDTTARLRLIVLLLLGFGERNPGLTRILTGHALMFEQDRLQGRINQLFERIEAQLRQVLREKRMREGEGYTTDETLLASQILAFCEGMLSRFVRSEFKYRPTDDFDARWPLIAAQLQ
Assay: BLI
Conditions: remark: other sources report otherwise

Kd: 82 µM
B1: FtsZ-360, P0A9A6 1-360 (domain or fragment)
chain: MFEPMELTNDAVIKVIGVGGGGGNAVEHMVRERIEGVEFFAVNTDAQALRKTAVGQTIQIGSGITKGLGAGANPEVGRNAADEDRDALRAALEGADMVFIAAGMGGGTGTGAAPVVAEVAKDLGILTVAVVTKPFNFEGKKRMAFAEQGITELSKHVDSLITIPNDKLLKVLGRGISLLDAFGAANDVLKGAVQGIAELITRPGLMNVDFADVRTVMSEMGYAMMGSGVASGEDRAEEAAEMAISSPLLEDIDLSGARGVLVNITAGFDLRLDEFETVGNTIRAFASDNATVVIGTSLDPDMNDELRVTVVATGIGMDKRPEITLVTNKQVQQPVMDRYQQHGMAPLTQEQKPVAKVVND
